The target in series [1] is (Pro-Pro-Gly)10 peptide model substrate.
In series [2] the target is Unhydroxylated collagen purified from strain PP434 (vector MMV411).

B1: P4HA and P4HB with the His tag, expressed separately (bidirectional), encoded by plasmid MMV503 (protein)
chain 1: HPGFFTSIGQMTDLIHTEKDLVTSLKDYIKAEEDKLEQIKKWAEKLDRLTSTATKDPEGFVGHPVNAFKLMKRLNTEWSELENLVLKDMSDGFISNLTIQRQYFPNDEDQVGAAKALLRLQDTYNLDTDTISKGDLPGVKHKSFLTVEDCFELGKVAYTEADYYHTELWMEQALRQLDEGEVSTVDKVSVLDYLSYAVYQQGDLDKALLLTKKLLELDPEHQRANGNLKYFEYIMAKEKDANKSSSDDQSDQKTTLKKKGAAVDYLPERQKYEMLCRGEGIKMTPRRQKKLFCRYHDGNRNPKFILAPAKQEDEWDKPRIIRFHDIISDAEIEVVKDLAKPRLRRATISNPITGDLETVHYRISKSAWLSGYENPVVSRINMRIQDLTGLDVSTAEELQVANYGVGGQYEPHFDFARKDEPDAFKELGTGNRIATWLFYMSDVLAGGATVFPEVGASVWPKKGTAVFWYNLFASGEGDYSTRHAACPVLVGNKWVSNKWLHERGQEFRRPCTLSELE
chain 2: APDEEDHVLVLHKGNFDEALAAHKYLLVEFYAPWCGHCKALAPEYAKAAGKLKAEGSEIRLAKVDATEESDLAQQYGVRGYPTIKFFKNGDTASPKEYTAGREADDIVNWLKKRTGPAASTLSDGAAAEALVESSEVAVIGFFKDMESDSAKQFFLAAEVIDDIPFGITSNSDVFSKYQLDKDGVVLFKKFDEGRNNFEGEVTKEKLLDFIKHNQLPLVIEFTEQTAPKIFGGEIKTHILLFLPKSVSDYEGKLSNFKKAAESFKGKILFIFIDSDHTDNQRILEFFGLKKEECPAVRLITLEEEMTKYKPESDELTAEKITEFCHRFLEGKIKPHLMSQELPDDWDKQPVKVLVGKNFEEVAFDEKKNVFVEFYAPWCGHCKQLAPIWDKLGETYKDHENIVIAKMDSTANEVEAVKVHSFPTLKFFPASADRTVIDYNGERTLDGFKKFLESGGQDGAGDDDDLEDLEEAEEPDLEEDDDQKAVKDELHHHHHH
As for B1, in series [1], the “alpha-ketoglutaric acid consumption over time” value was “The P4HA and P4HB enzymatic activity from PP548 were confirmed by the same assay as above”. Further, in series [2], the “% Hydroxyproline (in vitro hydroxylation, 32 C, 1 hour); enzyme from strain PP636” value turned out to be 0.9%.
